Measurements taken from patent publication US20050002930A1.

Molecular target: α5β1 integrin on CD14+ blood monocytes of the dosed animals
Assay: FACS occupancy on blood monocytes compared with serum levels of M200

B1: M200 chimeric (mouse/human IgG4) anti-α5β1 integrin antibody (antibody, V domains shown)
VH: QVQLKESGPGLVAPSQSLSITCTISGFSLTDYGVHWVRQPPGKGLEWLVVIWSDGSSTYNSALKSRMTIRKDNSKSQVFLIMNSLQTDDSAMYYCARHGTYYGMTTTGDALDYWGQGTSVTVSS
VL: QIVLTQSPAIMSASLGERVTMTCTASSSVSSNYLHWYQQKPGSAPNLWIYSTSNLASGVPARFSGSGSGTSYSLTISSMEAEDAATYYCHQYLRSPPTFGGGTKLEIKR
serum concentration sufficient to completely saturate monocyte α5β1 integrin binding sites: 60 µg/mL
